From patent US20240018184A1

Tests used:
[1] = molecular target: mAb (sample of Example 11, 4.28 mg/ml); assay: load volume to 35% breakthrough, PCC columns, CIP with 2 M NaOH
[2] = molecular target: Cy5-hIgG (Cy5-labelled human immunoglobulin G) (human); assay: confocal microscopy of beads with Cy5-hIgG, after 16 h in 1 M NaOH
[3] = molecular target: human polyclonal IgG (Gammanorm) (human); assay: pH gradient elution (citrate pH 6-3) from column
[4] = molecular target: Cy5-hIgG (Cy5-labelled human immunoglobulin G) (human); assay: confocal microscopy of beads with Cy5-hIgG, after 8 h in 2 M NaOH

| original capacity remaining [1] [%] | binding capacity lost [2] [%] | Elution pH (peak 1) [3] [pH] | Elution pH (peak 2) [3] [pH] | Ig-binding capacity lost [4] [%] | Substance |
| --- | --- | --- | --- | --- | --- |
| < 80 | – | – | – | – | MabSelect SuRe (ligand of the commercial reference matrix) |
| – | 50 | 4.01 | 3.7 | 50 | MabSelect SuRe LX (ligand of the commercial reference matrix) |
| – | – | 4.24 | 3.81 | – | Zvar(Q9A, N11E, Q40V, A42K, N43A, L44I)6 (designed binder) |
